These results are taken from patent US20190127481A1 (UNIVERSIT T Z RICH, published 2019).

The target in assay [1] is T1, HER2 (form in the assay not stated) (human, UniProt P04626 23-652, limits assumed). The experiment in a line: method not stated.
The target in assay [2] is T1, HER2 (form in the assay not stated). As to the kind of experiment: method and HER2 form not stated.
For assay [3], the target named is T2, HER2 (ErbB2/Neu) on the surface of HER2-overexpressing cancer cells (human, UniProt P04626 23-1255).
T2 construct: whole, on cells; also called HER2 on BT474, SkBr3, SkOv3 cells
As to the kind of experiment: flow cytometry on intact BT474 cells, Alexa488-labelled agent. A general note: A flow cytometer gives signals particle by particle.
Procedure: Cells were detached by collagenase and EDTA for 5 min at 37° C. The solution was quenched by addition of medium and centrifuged at 300 g for 3 min. Cells were washed twice in warm PBS. […] Internalization was blocked by incubation in PBS containing 0.2% NaN₃ and 1% BSA for 30 min at 37° C.
For each time point, a 1 ml aliquot of cells is withdrawn and subjected to FACS. Since the applied concentrations of the labeled ligand conjugates are very low, and since the time resolution of the measurement is to be maintained to ensure the accuracy of the on-rate determination, the samples are processed without further washing. For each time point, at least 10⁴ intact cells (gated as a uniform population on a FSC/SSC scatter plot) are counted, and the MFI (mean fluorescence intensity) is recorded.
Corresponding to 100 μl cell suspension, samples were washed twice in 1 ml PBS (0.2% NaN₃, 1% BSA) and centrifuged at 600 g for 30 sec at room temperature. Cells were resuspended in 1 ml PBS (0.2% NaN₃, 1% BSA) containing 100 nM of equivalent unlabeled binding agent. The dissociation reaction was incubated for the indicated times (15, 30, 60, 120, 180 and 240 min) at room temperature while continuously stirring in the dark. Dissociation was stopped by placing the cell pellets on ice. Each sample was washed once with 1 ml cold PBS.

The target of assay [4] is T2, HER2 (ErbB2/Neu) on the surface of …. As to the kind of experiment: dissociation from BT474 cells by flow cytometry in the presence of a competing DARPin.

Broadly, the Kd is the constant that tells how readily two partners part at equilibrium. Read a low Kd as higher affinity. By koff is commonly meant a measure of how fast the partners let go of each other. Higher therefore signals fast dissociation. Usually kon stands for a measure of how fast the partners come together. A higher kon goes with fast association.

B1: DARPin 929 (designed binder)
chain: MRGSHHHHHHGSDLGKKLLEAARAGQDDEVRILMANGADVNAHDFYGITPLHLAANFGHLEIVEVLLKHGADVNAFDYDNTPLHLAADAGHLEIVEVLLKYGADVNASDRDGHTPLHLAAREGHLEIVEVLLKNGADVNAQDKFGKTAFDISIDNGNEDLAEILQKLN
modifications: Alexa Fluor-488 label in the flow-cytometry kinetics (attachment site not given)
notes: Member of the 9XX collection
For B1, the Kd in assay [1] was determined as 1 nM. Besides, in assay [2], binding was characterised by a dissociation constant (Kd) of 3.8 nM, the koff was determined as 0.0008 s⁻¹ and the association rate constant (kon) turned out to be 200000 M⁻¹ s⁻¹. For the same molecule, in assay [3], the Kd is 33.5 nM, the koff was 0.00221 s⁻¹ and the kon amounted to 69000 M⁻¹ s⁻¹.

B2: G3-(G4S)4-9_26 (designed binder)
chain: MRGSHHHHHHGSDLGKKLLEAARAGQDDEVRILMANGADVNAKDEYGLTPLYLATAHGHLEIVEVLLKNGADVNAVDAIGFTPLHLAAFIGHLEIAEVLLKHGADVNAQDKFGKTAFDISIGNGNEDLAEILQKLGGGGSGGGGSGGGGSGGGGSRSDLGKKLLEAARAGQDDEVRILMANGADVNAKDFYGITPLHLAAAYGHLEIVEVLLKHGADVNAHDWNGWTPLHLAAKYGHLEIVEVLLKHGADVNAIDNAGKTPLHLAAAHGHLEIVEVLLKYGADVNAQDKFGKTAFDISIDNGNEDLAEILQKLN
modifications: fluorescently labelled in FIG. 18A (dye and site not carried by the letters)
notes: Opposite orientation of 6_20_G; also called G_20_6
As for B2, the “fold lower off-rate than monovalent G3” value in assay [4] was found to be 10 fold.

B3: DARPin 926 (designed binder)
chain: MRGSHHHHHHGSDLGKKLLEAARAGQDDEVRILMANGADVNAKDFYGITPLHLAAAYGHLEIVEVLLKHGADVNAHDWNGWTPLHLAAKYGHLEIVEVLLKHGADVNAIDNAGKTPLHLAAAHGHLEIVEVLLKYGADVNAQDKFGKTAFDISIDNGNEDLAEILQKLN
notes: Member of the 9XX collection
In assay [1], B3 had a Kd of 1 nM. In assay [2], the Kd was 1.4 nM, the koff was 0.0001 s⁻¹ and the kon was found to be 70000 M⁻¹ s⁻¹.

B4: 9_26-(G4S)4-G3 (designed binder)
chain: MRGSHHHHHHGSDLGKKLLEAARAGQDDEVRILMANGADVNAKDFYGITPLHLAAAYGHLEIVEVLLKHGADVNAHDWNGWTPLHLAAKYGHLEIVEVLLKHGADVNAIDNAGKTPLHLAAAHGHLEIVEVLLKYGADVNAQDKFGKTAFDISIDNGNEDLAEILQKLGGGGSGGGGSGGGGSGGGGSRSDLGKKLLEAARAGQDDEVRILMANGADVNAKDEYGLTPLYLATAHGHLEIVEVLLKNGADVNAVDAIGFTPLHLAAFIGHLEIAEVLLKHGADVNAQDKFGKTAFDISIGNGNEDLAEILQKLN
modifications: fluorescently labelled in the dissociation assay; dye and site not stated
notes: 20 amino acid (G4S)4 linker; also called 6_20_G
For the molecule B4, the “fold lower off-rate than monovalent G3” value in assay [4] turned out to be 10 fold.

B5: DARPin H14 (designed binder)
chain: GSDLGKKLLEAARAGQDDEVRILMANGADVNATDIHGHTPLHLAAAMGHLEIVEVLLKNGADVNANDWRGFTPLHLAALNGHLEIVEVLLKNGADVNATDTAGNTPLHLAAWFGHLEIVEVLLKNGADVNAQDKFGKTAFDISIDNGNEDLAEILQKLN
Take B5: in assay [2], the dissociation constant (Kd) was 0.2 nM, the off-rate constant (koff) was 0.0001 s⁻¹ and the on-rate constant (kon) amounted to 410000 M⁻¹ s⁻¹. Moreover, in assay [3], binding was put at a Kd of 0.97 nM, the off-rate constant (koff) worked out at 0.000179 s⁻¹ and the kon came to 196000 M⁻¹ s⁻¹.

B6: DARPin G3 (designed binder)
chain: GSDLGKKLLEAARAGQDDEVRILMANGADVNAKDEYGLTPLYLATAHGHLEIVEVLLKNGADVNAVDAIGFTPLHLAAFIGHLEIAEVLLKHGADVNAQDKFGKTAFDISIGNGNEDLAEILQKLN
B6 registered an equilibrium dissociation constant (Kd) in assay [1] of 0.09 nM.

B7: 9_29-(G4S)4-G3 (designed binder)
chain: MRGSHHHHHHGSDLGKKLLEAARAGQDDEVRILMANGADVNAHDFYGITPLHLAANFGHLEIVEVLLKHGADVNAFDYDNTPLHLAADAGHLEIVEVLLKYGADVNASDRDGHTPLHLAAREGHLEIVEVLLKNGADVNAQDKFGKTAFDISIDNGNEDLAEILQKLGGGGSGGGGSGGGGSGGGGSRSDLGKKLLEAARAGQDDEVRILMANGADVNAKDEYGLTPLYLATAHGHLEIVEVLLKNGADVNAVDAIGFTPLHLAAFIGHLEIAEVLLKHGADVNAQDKFGKTAFDISIGNGNEDLAEILQKLN
modifications: fluorescently labelled in FIG. 18A (dye and site not carried by the letters)
notes: 20 amino acid (G4S)4 linker; also called 9_20_G
Consider B7, for which the “fold lower off-rate than monovalent G3” value in assay [4] was found to be 10 fold.
